In paper PMC6829599 (The Journal of Experimental Medicine, 2019):

B1: p47phox PX domain (truncated p47phox, residues 2–132) (domain or fragment)
chain: GDTFIRHIALLGFEKRFVPSQHYVYMFLVKWQDLSEKVVYRRFTEIYEFHKTLKEMFPIEAGAINPENRIIPHLPAPKWFDGQRAAENRQGTLTEYCSTLMSLPTKISRCPHLLDFFKVRPDDLKLPTDNQ

Key:
[1] = target: recombinant PCNA (proliferating cell nuclear antigen) (human) (UniProt P12004); test: SPR
[2] = target: recombinant PCNA (proliferating cell nuclear antigen) (human, UniProt P12004 1-261); test: SPR

Row | Molecule | Kd [1] [µM] | k (backward) (two-state model, second step) [1] [s⁻¹] | k (forward) (two-state model, second step) [1] [s⁻¹] | ka1 (two-state model, first step) [1] [M⁻¹ s⁻¹] | kd1 (two-state model, first step) [1] [s⁻¹] | Kd [2] [µM] | kon [2] [M⁻¹ s⁻¹]
1 | recombinant human Rac2 (from UniProt P15153 1-192) (natural protein; other documents disagree on this pair) | 3.3 | 0.00066 | 0.0057 | 541 | 0.017 | – | –
2 | B1 | – | – | – | – | – | 33 | 85.2
